The results in this text go back to PMC314469, “Protein Interaction Networks by Proteome Peptide Scanning” (PLoS Biology, 2004).

Common to all, as to experiment: SPOT array
Assay [1] has as its target T1, Boi1 SH3 (BOI1_YEAST), P38041.
T1 chain: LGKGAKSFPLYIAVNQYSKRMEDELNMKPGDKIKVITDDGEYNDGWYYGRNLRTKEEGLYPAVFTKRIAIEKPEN

Assay [2] deals with T2, Yfr024 SH3 (LSB3_YEAST), P43603.
T2 chain: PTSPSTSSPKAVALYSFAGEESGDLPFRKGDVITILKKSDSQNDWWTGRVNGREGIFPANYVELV

Assay [3] concerns the target Sho1 SH3 (SHO1_YEAST), P40073.
Assay [4] has as its target T3, Yhr016c SH3 (YSC84_YEAST), P32793.
T3 chain: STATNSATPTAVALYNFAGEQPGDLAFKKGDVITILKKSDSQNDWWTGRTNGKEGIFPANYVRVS

Assay [5] has as its target T4, Myo5 SH3 (MYO5_YEAST), Q04439.
T4 chain: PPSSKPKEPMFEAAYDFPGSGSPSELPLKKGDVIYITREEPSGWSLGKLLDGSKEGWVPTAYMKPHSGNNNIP

Assay [6] has as its target T5, Boi2 SH3 (BOI2_YEAST), P39969.
T5 chain: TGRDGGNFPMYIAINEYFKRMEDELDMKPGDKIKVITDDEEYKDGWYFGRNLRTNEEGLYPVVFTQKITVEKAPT

Assay [7] has as its target T6, Rvs167 SH3 (RV167_YEAST), P39743.
T6 chain: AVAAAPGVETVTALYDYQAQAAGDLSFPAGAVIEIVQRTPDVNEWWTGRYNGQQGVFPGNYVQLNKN

Sequence of Sho1 SH3 (SHO1_YEAST), P40073 (P40073 295-366): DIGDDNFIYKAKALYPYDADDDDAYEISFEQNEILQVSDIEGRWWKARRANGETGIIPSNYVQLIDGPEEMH

Consider EFIVKTIPVPPRDF [YER025W 296-309], for which the normalised SPOT signal, Boehringer light units (BLU); mean over the file's lines of this peptide in assay [1] was 15; in assay [2] it was 202; in assay [3], 57.2; in assay [4] it was 44.4; in assay [5], 115; in assay [6] it was 13.8. Further, the normalised SPOT signal, Boehringer light units (BLU); mean over the file's lines of this peptide in assay [7] worked out at 30.4.

As for EFQSKSSPVPPASE [YDR008C 96-109], the normalised SPOT signal, Boehringer light units (BLU); mean over the file's lines of this peptide amounted to 1430 in assay [1]; 7.3 in assay [2]; 34.9 in assay [3]; 49.9 in assay [4]; 78.8 in assay [5]; 26.5 in assay [6]. In addition, in assay [7], the normalised SPOT signal, Boehringer light units (BLU); mean over the file's lines of this peptide came to 83.5.

As for EFLIKEDPDLPPQG [YCL024W 744-757], the normalised SPOT signal, Boehringer light units (BLU); mean over the file's lines of this peptide is 78 in assay [1]; 8.1 in assay [2]; 65.4 in assay [3]; 51.8 in assay [4]; 175 in assay [5]; 69.1 in assay [6]. Besides, the normalised SPOT signal, Boehringer light units (BLU); mean over the file's lines of this peptide in assay [7] amounted to 134.

As to EFPGKKSPRLPHRN [YPR097W 343-356], the normalised SPOT signal, Boehringer light units (BLU); mean over the file's lines of this peptide turned out to be 1090 in assay [1]; 8340 in assay [2]; 71.6 in assay [3]; 7160 in assay [4]; 368 in assay [5]; 42.9 in assay [6]. For the same molecule, the normalised SPOT signal, Boehringer light units (BLU); mean over the file's lines of this peptide in assay [7] came out at 3000.

Take EFDLKNIPMMPAGE [YDL229W 462-475]: the normalised SPOT signal, Boehringer light units (BLU); mean over the file's lines of this peptide was determined as 18.6 in assay [1]; 112 in assay [2]; 37.1 in assay [3]; 32.3 in assay [4]; 106 in assay [5]; 9.1 in assay [6]. Moreover, in assay [7], the normalised SPOT signal, Boehringer light units (BLU); mean over the file's lines of this peptide is 74.1.

As for EFLRKHSPKAPATG [YMR021C 127-140], the normalised SPOT signal, Boehringer light units (BLU); mean over the file's lines of this peptide in assay [1] is 620; in assay [2] it was 227; in assay [3], 91; in assay [4], 13.2; in assay [5], 413; in assay [6], 37.3. The same molecule returned a normalised SPOT signal, Boehringer light units (BLU); mean over the file's lines of this peptide in assay [7] of 126.
